This is an account of results in patent publication US10562969B2, “Substitution monotherapy treatment for HIV-1 infection employing antibody PRO140” (CYTODYN INC., priority 2014, dated 2020).

Where “and” joins values, the source holds several entries; their conditions need not be identical. Equal values may be shown once. Read-outs that look alike come from different tables or passages of the source. Marks after values point to notes of the source that are not given here.

For data set [1], the system named is HIV-1. The settings on record: dose-dependent; treatment period of 10-14 days; cited from earlier work.
The conditions of data set [2]: in vivo; cited from earlier work.
The conditions of data set [3]: single administration of solution, oral, healthy male volunteers; cited from earlier work.
Data set [4] concerns HIV-1. Put plainly: Second Phase 2b extension treatment substitution study, PRO 140 monotherapy. The format is in vivo, human. The method, then:
As with the first TS study, only subjects with exclusive CCR5-tropic virus were to be enrolled. However, 6 out of 16 subjects were determined to have dual- or mixed-tropic (D/M) virus when screening blood samples were tested by HIV-1 Co-receptor Tropism by Proviral DNA method or Ultradeep Sequencing with Reflex (Quest Diagnostics), as a retrospective exploratory analysis.

For data set [5], the system named is HIV-1. The conditions noted are these: antiviral; cited from earlier work.
The subject of data set [6] is HIV-1.
Description: All potential study patients were screened and for entry and must be HIV positive with the type of virus, ‘R5’, that uses the coreceptor CCR5 for cell entry and infection.
The first phase 2b TS study, also noted above, was conducted based on the following protocol. The TS study was for the Human Immunodeficiency Virus Type-1 (HIV-1) Infection indication. The TS study involved forty patients, was 14 weeks long, and patients' viral loads were checked weekly. Patients enrolled in the study had undetectable viral load at day one of the study (viral load<50). […] Failure of a patient under study was determined to occur if their viral load (VL) was measured at >400 two times.
Patient enrollment was staggered in this study to facilitate adequate safety monitoring. A lead cohort included 12 subjects. Enrollment of additional 28 subjects was initiated after approval by the independent DSMB.
Subjects who met all eligibility criteria, as per data gathered from Screening Visit were eligible for treatment. […] The first treatment visit took place within 42 days of the screening visit. Eligible subjects received up to 14 treatments, given every week (±3 days) or until virologic failure, whichever occurred first. Visits during the treatment phase commenced on T1, i.e. the date of first treatment, with weekly visits (±3 days) thereafter.
Subjects who experienced virologic failure (defined as two consecutive HIV-1 RNA levels of ≥400 copies/ml separated by at least 3 days) at any time during the treatment phase underwent the virologic failure (VF) visit assessments and then exited the Treatment Phase to enter the follow-up phase of the study.
Subjects who experienced VF were followed up every 4 weeks until the viral suppression was achieved (i.e., plasma HIV-1 RNA levels to return back to <50 copies/mL).
Efficacy Analysis. The main analysis of primary and secondary endpoint will be conducted on the PP population and ITT population will be used for supportive analysis. […] VF is defined as two consecutive HIV-1 RNA levels of ≥400 copies/ml separated by at least 3 days. […] The statistical comparison will be conducted using Wilcoxon rank sum test and the median time to VF for this study will be compared to 30 days.
The conditions of data set [7]: cited from earlier work; for mean change in CD4+ cell counts from baseline: 5 mg/kg IV.
Data set [8] has as its system HIV-1. The conditions noted are these: cited from earlier work.
Data set [9] deals with HIV-1. The settings on record: repeated administration; cited from earlier work.
The subject of data set [10] is R5 HIV-1. The conditions noted are these: cited from earlier work.
For data set [11] the following is noted: cited from earlier work.
For data set [12] the following is noted: subjects treated with SC PRO 140; cited from earlier work.
The subject of data set [13] is R5 HIV-1. The settings on record: cited from earlier work. The source holds these as a separate data set.
For data set [14] the following is noted: cited from earlier work. The source holds these as a separate data set.
The test system of data set [15] is HIV-1. The conditions noted are these: based on pharmacodynamic data from prior SC and IV studies.
Description: The maximal change in HIV-1 viral load from baseline was determined at any point 59 days after initiation of therapy. To allow approximate comparisons between the IV and SC doses, the overall AUC observed for repeat SC doses was conservatively estimated by multiplying the measured AUC0-7d by the number of doses administered. Viral load and AUC data were fit to an Emax equation: E=Emax×AUC/(AUC+AUC50).
Data set [16] can be described thus: First Phase 2b treatment substitution study, CD4 cell count and safety. The conditions noted are these: for CD4 cell count: individual subjects. The text has this: Efficacy assessments at each week included assessment of viral load and CD4 cells count. Safety assessments consisted of physical exam, lab, and adverse event assessments at each treatment and follow-up visit.
The Per Protocol (PP) population was defined as the set of subjects who meet the ITT population requirements, and were not associated with a major protocol violation. This population was identified before the database lock. The PP population will be the primary analysis population for the analysis of primary and secondary endpoints. […] This population will be used for the analysis of safety parameters.

Data set [17] has as its system HIV-1. The conditions noted are these: cited from earlier work. This is another data set of the same source.
The target of data set [18] is T1, CCR5 (Homo sapiens, UniProt P51681). The conditions noted are these: cited from earlier work.
T1 sequence (P51681 whole entry): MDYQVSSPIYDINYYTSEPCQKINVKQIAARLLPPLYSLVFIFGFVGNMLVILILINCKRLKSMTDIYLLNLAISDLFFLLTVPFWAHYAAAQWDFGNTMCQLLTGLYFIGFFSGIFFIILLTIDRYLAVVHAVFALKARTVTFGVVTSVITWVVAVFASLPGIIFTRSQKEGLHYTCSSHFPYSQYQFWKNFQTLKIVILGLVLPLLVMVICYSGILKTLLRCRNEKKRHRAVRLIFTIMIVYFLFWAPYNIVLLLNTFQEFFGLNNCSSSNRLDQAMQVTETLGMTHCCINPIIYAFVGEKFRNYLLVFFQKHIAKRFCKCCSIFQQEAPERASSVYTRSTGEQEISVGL
For data set [19] the following is noted: in vivo.
The subject of data set [20] is HIV-1. The conditions noted are these: cited from earlier work. The source holds these as a separate data set.
In data set [21] the target is T1, CCR5. Details: endogenous in cells. The conditions noted are these: for 29 days after treatment with both 5 and 10 mg/kg doses; cited from earlier work.
In data set [22] the target is CCR5 on circulating lymphocytes (Homo sapiens, UniProt P51681). The conditions noted are these: single IV injection; cited from earlier work.
CCR5 on circulating lymphocytes, sequence (P51681 whole entry): as above
[23] abbreviates: interim, first cohort of 12 patients.

Regarding `CCCCN1C(=O)[C@@H]([C@H](O)C2CCCCC2)NC(=O)C12CCN(Cc1ccc(Oc3ccc(C(=O)O)cc3)cc1)CC2` [GW873140], in [1], the “mean reductions in HIV-1 RNA levels” value was “about 1 log10”.

On to `CCO/N=C(\c1ccc(Br)cc1)C1CCN(C2(C)CCN(C(=O)c3c(C)cc[n+]([O-])c3C)CC2)CC1` [SCH-C], for which the “mean reductions in HIV-1 RNA levels” value in data set [1] is on record as “about 1 log10”.

`COC[C@@H](c1ccc(C(F)(F)F)cc1)N1CCN(C2(C)CCN(C(=O)c3c(C)ncnc3C)CC2)C[C@@H]1C` [SCH-D]: in data set [2], the “clinically significant changes in QTc intervals” value was “none of the above-identified agents induced clinically significant changes in QTc intervals”. Moreover, the “mean reductions in HIV-1 RNA levels” value in data set [1] is “about 1 log10”.

For `CCCCOCCOc1ccc(-c2ccc3c(c2)/C=C(/C(=O)Nc2ccc([S@@+]([O-])Cc4cncn4CCC)cc2)CCCN3CC(C)C)cc1` [TAK-652], the “safety, tolerability” value in [3] is “safe and well tolerated”.

Take `Cc1nnc(C(C)C)n1[C@H]1C[C@H]2CC[C@@H](C1)N2CC[C@H](NC(=O)C1CCC(F)(F)CC1)c1ccccc1` [UK-427,857]: the “clinically significant changes in QTc intervals” value in data set [2] is “none of the above-identified agents induced clinically significant changes in QTc intervals”. Besides, the “mean reductions in HIV-1 RNA levels” value in [1] was “about 1 log10”.

B1: PRO 140: humanized IgG4,κ monoclonal antibody (mAb) to the C-C chemokine receptor type 5 (CCR5) (antibody, chains of the INN, looked up, V domains shown)
VH: EVQLVESGGGLVKPGGSLRLSCAASGYTFSNYWIGWVRQAPGKGLEWIGDIYPGGNYIRNNEKFKDKTTLSADTSKNTAYLQMNSLKTEDTAVYYCGSSFGSNYVFAWFTYWGQGTLVTVSS
VL: DIVMTQSPLSLPVTPGEPASISCRSSQRLLSSYGHTYLHWYLQKPGQSPQLLIYEVSNRFSGVPDRFSGSGSGTDFTLKISRVEAEDVGVYYCSQSTHVPLTFGQGTKVEIK
As for B1, the “Proportion of Subjects with Virologic Failure within 24 weeks of PRO 140 Monotherapy” value in [4] (Total (N = 16)) is given as 4/16. The “subjects experiencing virologic failure in the Extension study” value in data set [4] (four out of 16 subjects) worked out at 25%. In [4] (individual subjects, interim, includes duration from PRO 140 Substitution study), the “Time on PRO 140 Monotherapy” value is 27 # of weeks (3×) and 28 # of weeks (2×) and 31 # of weeks and 22 # of weeks (5×) and 24 # of weeks and 29 # of weeks and 26 # of weeks. Further, the “subjects with more than 20 weeks of PRO 140 monotherapy” value in [4] (interim, first TS study plus Extension) is 10 out of 16 subjects and 14 out of 16 subjects. Further, the “duration of complete viral-load suppression” value in data set [4] (ongoing extension study) is approximately 11 months. The IC90 entry in data set [5] is reported as “about 4 μg/ml”. Moreover, in data set [6] (22 out of 40 enrolled subjects), the “enrolled subjects who completed 12 weeks of PRO 140 Monotherapy without experiencing virologic failure” value is listed as 55%. Moreover, the “Proportion of Subjects with Virologic Failure within 4 weeks of PRO 140 Monotherapy” value is recorded as 1/24 in [6] (CCR5 (N = 24)) and 1/40 in [6] (Total (N = 40), 350 mg SC weekly). Moreover, the “Proportion of Subjects with Virologic Failure within 12 weeks of PRO 140 Monotherapy” value in data set [6] (CCR5 (N = 24)) is listed as 8/24; in data set [6] (Total (N = 40)), 18/40. Further, the “Virologic Failure anytime during Treatment Phase” value in data set [6] (CCR5- plus Dual/Mixed-tropic Population N = 40) came out at 18 n. Further, in [6] (individual subjects reported as Dual/Mixed), the “Virologic Failure” value is “YES”. For the same molecule, the “patients who experienced virologic failure after 11 weeks of monotherapy” value in data set [6] (setting [23]) was 7 patients. The “patients who had not experienced virologic failure after 10 weeks of monotherapy” value in data set [6] (setting [23]) is “five”. Besides, the “patients who passed four weeks of monotherapy (no virologic failure)” value in data set [6] (setting [23]) is given as 100%. The “patients with viral load suppression after 8 weeks of monotherapy” value in [6] (interim, first cohort, excluding two dual-mix virus patients (six of ten)) is listed as 60%. Further, the “virologic failure subjects who achieved viral suppression to <400 and to 'Non Detectable' or <50 HIV-1 RNA copies/ml” value in data set [6] (once ART reinitiated, seventeen of eighteen subjects) is 94.4%. In addition, the “mean change in CD4+ cell counts from baseline” value in data set [7] (day 8) is reported as “+129 cells/μL”; in data set [7] (day 15) it was “+96 cells/μL”; in data set [7] (day 22), “+83 cells/μL”. Also, the “effect on QTc interval or other electrocardiographic parameters” value in [7] (in vivo, iv) is given as “no significant effect”. In addition, the “mean nadir reduction in viral load” value in data set [8] (single 5 mg/kg IV dose) is 1.8 log10; in data set [8] (single 10 mg/kg IV dose) it was 1.8 log10; in data set [10] (324 mg SC weekly for three weeks) it was 1.65 log10. For the same molecule, the “reduction in viral loads, all PRO 140-treated subjects” value in data set [8] (single IV infusion 5 or 10 mg/kg) was “more than 10 fold”. Also, in [8] (treatment groups (5 and 10 mg/kg IV)), the “mean max log10 reductions in viral load” value is given as 1.83 log10. The “control of HIV-1 replication” value in data set [9] was “prolonged control of HIV-1 replication without viral escape”. The “persistence of antiviral effects after the final dose” value in data set [10] (324 mg SC doses) was “one week”. For the same molecule, the “mean AUC from time zero to infinity (AUC∞)” value was 278 mg·days/L in [11] (5 mg/kg single IV, serum) and 11.1 mg·days/L in data set [11] (in vivo, iv, 0.5 mg/kg). Moreover, in data set [11] (in vivo, iv, 5 mg/kg), the mean serum half-life is reported as 3.5 days. The “CD4+ cell counts” value in [12] is listed as “trend towards increased CD4+ cell counts”. Moreover, the “time mean viral load reductions of greater than 1 login were sustained post-treatment” value in data set [13] (5 mg/kg IV group) is 2-3 weeks. In data set [13] (after single IV dose, followed 58 days), the “development of viral resistance to PRO 140” value is listed as “no significant development of viral resistance to PRO 140 was observed”. Besides, in data set [13] (single 5 mg/kg IV dose), the “viral load reduction on average” value is listed as 1.83 login. Also, the Tolerability result in data set [14] (in vivo) is “No Toxicity”. For the same molecule, in data set [14] (single dose of 324 mg), the “time serum concentrations are maintained above the IC50 for clinical isolates of HIV-1” value is reported as “at least 2 weeks”. Besides, the “trough concentrations at which maximum virologic suppression is expected” value in data set [15] is given as not below 5 μg/mL. In addition, the “subjects reporting 'general disorders and administration site conditions' AEs” value in data set [16] (13 of 40 subjects) stood at 32.5%. In addition, the “subjects reporting 'infections and infestations' AEs” value in data set [16] (14 of 40 subjects) worked out at 35%. The “reported AEs deemed either unlikely or not related to study treatment” value in [16] (63/89 AEs) was determined as 70.7%. For the same molecule, the “reported AEs deemed mild in nature” value in [16] (72/89 AEs) was 80.8%. Besides, the “subjects who experienced one or more adverse events” value in data set [16] (after at least one dose of PRO 140) is listed as 28 of 40 subjects. Moreover, the “subjects who experienced an SAE” value in data set [16] (deemed not related to the study drug) is given as 1 of 40 subjects. For the same molecule, the CD4 cell count in data set [16] (visit T3) is 585 /mm^3 and 1043 /mm^3 and 760 /mm^3 and 962 /mm^3 and 667 /mm^3 and 755 /mm^3 and 1299 /mm^3 and 677 /mm^3 and 497 /mm^3 and 443 /mm^3 and 625 /mm^3 and 554 /mm^3 and 901 /mm^3 and 858 /mm^3 and 513 /mm^3; in data set [16] (visit T5), 585 /mm^3 and 465 /mm^3 and 356 /mm^3 and 994 /mm^3 and 704 /mm^3 and 831 /mm^3 and 642 /mm^3 and 509 /mm^3 and 514 /mm^3 and 859 /mm^3 and 665 /mm^3 and 785 /mm^3 and 646 /mm^3. For the same molecule, the “CD4 cell counts throughout the Treatment Phase” value in data set [16] (overall review, 40 subjects) was “maintained at stable levels”. For the same molecule, in data set [17], the “Development of Resistance in Vitro” value is reported as “None at 40 weeks”. For the same molecule, the “Viral Cross-Resistance” value in data set [17] is “Limited”. In [18], the “Block Natural Activity of CCR5” value was “No”. The PK profile result in [19] is recorded as “favorable PK profile similar to that seen in prior clinical studies”. Also, the “PK samples, difference between subjects with and without virologic failure” value in data set [19] is “no significant difference observed”. Also, the “drops in plasma HIV-1 RNA levels” value in [20] (repetitive weekly administration of 324 mg SC) is recorded as “approximately 1.5 log10”; in data set [20] (single subcutaneous doses of 324 mg) it was “approximately 1.0 log10”. In addition, in data set [21], the “receptor occupancy (reduction in the number of cells detected)” value is more than 85%. The “duration of significant masking of CCR5 on circulating lymphocytes” value in data set [22] is on record as 2-4 weeks.
